# Experimental data from patent US20230391828A1, “REGULATORS OF CELL DIVISION” (TECHNISCHE UNIVERSITÄT DRESDEN, priority 2020, published 2023).
# Bridge positions count the residues as written; N and C are the ends. Square brackets hold non-standard residues; d marks the D form. R8 = C=CCCCCCC[C@@](C)(N)C(=O)O; S5 = C=CCCC[C@](C)(N)C(=O)O; Pra = C#CC[C@H](N)C(=O)O
# Key:
# APC/C [1] = experiment: Ubiquitinated securin (Mean ± SD); conditions: 100 µM
# Description: Table printed on a drawing sheet, Figure 6
# Head of the field: Ubiquitinated securin (Mean ± SD)
# APC/C (APC11) = biological target: T1, APC/C (APC11) (Homo sapiens, UniProt Q9NYG5); experiment: Pull-down binding assay in HeLa K cell extract, APC/C; conditions: Pra peptide clicked to azide agarose or magnetic beads, Western blot
# T1 construct: endogenous in cells; host or cells: HeLa K cell extract
# Protocol: (§1) For the protein transfer, the 0.45 μm Immobilon-FL PVDF membrane (Merck Millipore) was used. The membrane was activated in ethanol and then transferred to the Blotting buffer (50 mM SDS-MOPS, 50 mM Tris base, 0.1% SDS, 1 mM EDTA, 20% EtOH). The proteins were transferred using a wet transfer for 1.5 h at 400 mA. Subsequently, the membrane was incubated with the blocking solution, 10% milk in PBS-T (0.02% Tween-20 in PBS), for 1 h at room temperature. To detect proteins of the interest, the membrane was incubated with primary antibodies overnight at 4° C. Followed by washing the membrane 3 times 10 min with PBS-T and incubation with IRDye fluorescently labelled secondary antibodies for 1 h. Prior detection, the membrane was twice washed with PBS-T for 10 min and once with PBS for 10 min. The detection was done using the quantitative near-infrared scanning system Odyssey (LI-COR Biosciences).
# HeLa K cell pellet was re-suspended in the extraction buffer (30 mM HEPES pH 7.5, 175 mM NaCl, 2.5 mM MgCl2, 0.25% NP40, 10% glycerol, 1 mM DTT) supplemented with 10 μM MG132 (VWR), 1 mM PMSF (Sigma-Aldrich), complete protease inhibitor cocktail (Roche) and PhosSTOP phosphatase inhibitors (Roche) and incubated for 20 min on ice, followed by centrifugation of cell debris for 15 min at 4° C. 16 100 g. In mean time, inhibitor molecules containing Propargyl (Pra) chemical group were covalently attached to the azide agarose or azide magnetic resin (Jena Bioscience) by Cu(I)-catalysed azide-alkyne cycloaddition reaction. Specifically, the inhibitor molecules were mixed with azide agarose resin in ratio 0.125 μmol inhibitor/25 μl agarose resin and azide magnetic resin in ratio 0.018 μmol inhibitor/20 μl magnetic resin. The reaction was catalysed by 1 mM CuSO4, 0.1 mM TBTA (Sigma-Aldrich) and 1 mM Sodium ascorbate and was performed on the rotating wheel for 30 min at room temperature in the volume of 1 ml. Subsequently, the resin was washed 5 times with the extraction buffer. The inhibitor-agarose resin was added to 1 mg of HeLa K cell extract and the inhibitor-magnetic resin was added to 0.5 mg of HeLa K cell extract followed by incubation at 4° C. for 2 h. Followed by washing the resin 5 times with the extraction buffer. Pull-down proteins were eluted by boiling for 15 min with 1×LDS sample buffer supplemented with 100 mM DTT (agarose resin) or by incubation with 1×LDS sample buffer for 10 min at room temperature followed by taking supernatant that was supplemented with 100 mM DTT and boiling it for 10 min. Samples were subjected to SDS PAGE and Western blot analysis.
# HeLa K cell pellet was re-suspended in the extraction buffer (30 mM HEPES pH 7.5, 175 mM NaCl, 2.5 mM MgCl2, 0.25% NP40, 10% glycerol, 1 mM DTT supplied with complete protease inhibitor cocktail (Roche), PhosSTOP phosphatase inhibitors (Roche), 1 mM PMSF, 10 μM MG132) and incubated for 20 min on ice, followed by centrifugation to clear the lysate for 15 min at 4° C. 16,100 g. In the meantime, inhibitor molecules containing the propargyl-Gly-OH (Pra) chemical group were covalently attached to the azide agarose resin (Jena Bioscience) by Cu(I)-catalysed azide-alkyne cycloaddition reaction. Specifically, the inhibitor molecules were mixed with azide agarose resin in ratio 0.125 μmol inhibitor/20 μl agarose resin. The reaction was catalysed by 0.1 mM CuSO4, 0.5 mM THPTA (Sigma-Aldrich) and 5 mM Sodium ascorbate and was performed on the rotating wheel for 30 min at room temperature in the volume of 1 ml. […]
# APC/C [2] = biological target: T2, APC/C (Homo sapiens, UniProt Q9NYG5); experiment: In vitro APC/C ubiquitination assay driven by the E2 enzyme UBE2C, fluorophore-labelled securin substrate; assay type: biochemical; conditions: 100 μM, UBE2C, reaction time 45 min, 3 independent assays
# T2 construct: made in house; host or cells: SF9 insect cells (baculovirus)
# Protocol: Proteins were separated by SDS-PAGE electrophoresis using precast Bolt 4-12% Bis-Tris Plus protein gels (Thermo Fisher Scientific) and Criterion XT Bis-Tris Midi Protein Gels (Bio-Rad). In different experiments, various conditions were used: in vitro APC/C ubiquitination assays—165 V, 40 min, SDS-MES running buffer (50 mM MES, 50 mM Tris base, 0.1% SDS, 1 mM EDTA, pH 7.3; Thermo Fisher Scientific); in vitro APC/C ubiquitination assays determining KM—165V, 1 h, SDS-MOPS running buffer (50 mM MOPS, 50 mM Tris base, 0.1% SDS, 1 mM EDTA, pH 7.7; Thermo Fisher Scientific); pull-down binding assay—165 V, 35 min, SDS-MES running buffer.
# APC/C-dependent ubiquitination reactions were performed at 30° C. in 30 mM HEPES pH 7.4, 175 mM NaCl, 8 mM MgCl2, 0.05% Tween-20, 1 mM DTT and 5% glycerol and contained 20 nM recombinant APC/C (note, for testing the first generation of inhibitors, APC/C and Cdc20 immunoprecipitated from mitotic HeLa K cells was used), 340 nM Cdc20, 46 nM GST-UBA1, 340 nM UBE2C (alternatively 400 nM UBE2D1, 280 nM UBE2S), 21 μM His6-ubiquitin or if it is indicated 21 μM methylated-ubiquitin (BostonBiochem), 2.6 mM ATP, 10 mM phosphocreatine and 11 μM creatine kinase. As substrates, 35 nM fluorophore-labeled ubiquitin-cyclin B and 50 nM fluorophore-labeled securin were standardly used (fluorophore IRDye 800CW (LI-COR) was used for labelling). In case of KM and kcat determination, 50, 100, 250, 500, 750, 1000, 1250, 2500 and 5000 nM fluorophore-labelled securin was used. The reaction was done in the volume of 15 μl, it was quenched after the indicated time with LDS sample buffer (Thermo Fisher Scientific) supplemented with 100 mM DTT and subjected to SDS-PAGE. Detection of fluorescently labelled substrates was done by quantitative near-infrared scanning system Odyssey.
# Cullin 1 = biological target: T3, Cullin 1 (Homo sapiens, UniProt Q13616); experiment: Pull-down binding assay in HeLa K cell extract, Cullin 1; conditions: azide beads, Western blot
# T3 construct: endogenous in cells; host or cells: HeLa K cell extract
# Protocol: as §1
# HeLa K cell pellet was re-suspended in the extraction buffer (30 mM HEPES pH 7.5, 175 mM NaCl, 2.5 mM MgCl2, 0.25% NP40, 10% glycerol, 1 mM DTT) supplemented with 10 μM MG132 (VWR), 1 mM PMSF (Sigma-Aldrich), complete protease inhibitor cocktail (Roche) and PhosSTOP phosphatase inhibitors (Roche) and incubated for 20 min on ice, followed by centrifugation of cell debris for 15 min at 4° C. 16 100 g. […]
# T3 sequence (Q13616 whole entry): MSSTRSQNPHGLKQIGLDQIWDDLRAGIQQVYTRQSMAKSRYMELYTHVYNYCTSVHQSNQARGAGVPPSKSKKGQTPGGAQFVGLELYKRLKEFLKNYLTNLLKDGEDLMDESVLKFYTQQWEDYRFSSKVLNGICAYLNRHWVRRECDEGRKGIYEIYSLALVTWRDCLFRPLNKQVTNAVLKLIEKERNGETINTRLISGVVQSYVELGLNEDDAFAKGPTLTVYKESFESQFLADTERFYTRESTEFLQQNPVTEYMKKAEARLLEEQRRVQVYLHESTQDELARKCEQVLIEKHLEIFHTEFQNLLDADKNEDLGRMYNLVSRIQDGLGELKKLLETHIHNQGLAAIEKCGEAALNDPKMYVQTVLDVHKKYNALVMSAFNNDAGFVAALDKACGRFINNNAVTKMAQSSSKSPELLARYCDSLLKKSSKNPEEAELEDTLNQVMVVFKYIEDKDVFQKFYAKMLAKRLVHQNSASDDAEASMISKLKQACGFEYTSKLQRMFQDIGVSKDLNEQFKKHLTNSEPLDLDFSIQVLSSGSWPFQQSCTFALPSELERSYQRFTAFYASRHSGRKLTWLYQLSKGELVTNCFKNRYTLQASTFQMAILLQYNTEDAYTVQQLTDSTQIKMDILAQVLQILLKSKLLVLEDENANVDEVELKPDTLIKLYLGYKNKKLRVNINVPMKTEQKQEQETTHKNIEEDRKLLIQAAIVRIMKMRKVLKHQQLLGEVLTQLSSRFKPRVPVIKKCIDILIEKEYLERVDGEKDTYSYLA
substance,measurement,setting,value
"Ac-cyclo(4,11)-EWWZKLEIQRXRRA-NH2 (Ac-EWW[R8]KLEIQR[S5]RRA-NH2; staple 4-11; SMILES CC[C@H](C)[C@@H]1NC(=O)[C@H](CCC(=O)O)NC(=O)[C@H](CC(C)C)NC(=O)[C@H](CCCCN)NC(=O)[C@](C)(NC(=O)[C@H](Cc2c[nH]c3ccccc23)NC(=O)[C@H](Cc2c[nH]c3ccccc23)NC(=O)[C@H](CCC(=O)O)NC(C)=O)CCCCCCC=CCCC[C@@](C)(C(=O)N[C@@H](CCCNC(=N)N)C(=O)N[C@@H](CCCNC(=N)N)C(=O)N[C@@H](C)C(N)=O)NC(=O)[C@H](CCCNC(=N)N)NC(=O)[C@H](CCC(N)=O)NC1=O) [G3-4]",Ubiquitinated securin (Mean ± SD),APC/C [1],4.5 ± 7%
"Ac-cyclo(5,9)-RWPQXKWDXQVRRW-NH2 (Ac-RWPQ[S5]KWD[S5]QVRRW-NH2; staple 5-9; SMILES CC(=O)N[C@@H](CCCNC(=N)N)C(=O)N[C@@H](Cc1c[nH]c2ccccc12)C(=O)N1CCC[C@H]1C(=O)N[C@@H](CCC(N)=O)C(=O)N[C@@]1(C)CCCC=CCCC[C@@](C)(C(=O)N[C@@H](CCC(N)=O)C(=O)N[C@H](C(=O)N[C@@H](CCCNC(=N)N)C(=O)N[C@@H](CCCNC(=N)N)C(=O)N[C@@H](Cc2c[nH]c3ccccc23)C(N)=O)C(C)C)NC(=O)[C@H](CC(=O)O)NC(=O)[C@H](Cc2c[nH]c3ccccc23)NC(=O)[C@H](CCCCN)NC1=O) [G3-1] [listing 1 of 2 here]",binding to the APC/C (pull-down),APC/C (APC11),binds specifically to the APC/C
same,inhibition of APC/C activity in vitro compared with TAME,APC/C [2],inhibit APC/C in vitro more efficiently than TAME
"Ac-cyclo(5,9)-RWPQXIKDXQVRWW-NH2 (Ac-RWPQ[S5]IKD[S5]QVRWW-NH2; staple 5-9; SMILES CC[C@H](C)[C@@H]1NC(=O)[C@@](C)(NC(=O)[C@H](CCC(N)=O)NC(=O)[C@@H]2CCCN2C(=O)[C@H](Cc2c[nH]c3ccccc23)NC(=O)[C@H](CCCNC(=N)N)NC(C)=O)CCCC=CCCC[C@@](C)(C(=O)N[C@@H](CCC(N)=O)C(=O)N[C@H](C(=O)N[C@@H](CCCNC(=N)N)C(=O)N[C@@H](Cc2c[nH]c3ccccc23)C(=O)N[C@@H](Cc2c[nH]c3ccccc23)C(N)=O)C(C)C)NC(=O)[C@H](CC(=O)O)NC(=O)[C@H](CCCCN)NC1=O) [G3-3] [listing 1 of 2 here]",Ubiquitinated securin (Mean ± SD),APC/C [1],5.1 ± 6%
"Ac-cyclo(5,9)-RWPPraXKWDXQVRRW-NH2 (Ac-RWP[Pra][S5]KWD[S5]QVRRW-NH2; staple 5-9; SMILES C#CC[C@H](NC(=O)[C@@H]1CCCN1C(=O)[C@H](Cc1c[nH]c2ccccc12)NC(=O)[C@H](CCCNC(=N)N)NC(C)=O)C(=O)N[C@@]1(C)CCCC=CCCC[C@@](C)(C(=O)N[C@@H](CCC(N)=O)C(=O)N[C@H](C(=O)N[C@@H](CCCNC(=N)N)C(=O)N[C@@H](CCCNC(=N)N)C(=O)N[C@@H](Cc2c[nH]c3ccccc23)C(N)=O)C(C)C)NC(=O)[C@H](CC(=O)O)NC(=O)[C@H](Cc2c[nH]c3ccccc23)NC(=O)[C@H](CCCCN)NC1=O) [G3-1Pra]",binding to Cullin 1 (pull-down),Cullin 1,almost does not bind
same,binding to the APC/C (pull-down),APC/C (APC11),binds to the APC/C (APC2 and APC11)
"Ac-cyclo(5,9)-RWPQXKWDXQVRRW-NH2 (Ac-RWPQ[S5]KWD[S5]QVRRW-NH2; staple 5-9; SMILES CC(=O)N[C@@H](CCCNC(=N)N)C(=O)N[C@@H](Cc1c[nH]c2ccccc12)C(=O)N1CCC[C@H]1C(=O)N[C@@H](CCC(N)=O)C(=O)N[C@@]1(C)CCCC=CCCC[C@@](C)(C(=O)N[C@@H](CCC(N)=O)C(=O)N[C@H](C(=O)N[C@@H](CCCNC(=N)N)C(=O)N[C@@H](CCCNC(=N)N)C(=O)N[C@@H](Cc2c[nH]c3ccccc23)C(N)=O)C(C)C)NC(=O)[C@H](CC(=O)O)NC(=O)[C@H](Cc2c[nH]c3ccccc23)NC(=O)[C@H](CCCCN)NC1=O) [G3-1] [listing 2 of 2 here]",Ubiquitinated securin (Mean ± SD),APC/C [1],15.7 ± 8%
"Ac-cyclo(4,11)-EWWZKLELQRXRRA-NH2 (Ac-EWW[R8]KLELQR[S5]RRA-NH2; staple 4-11; SMILES CC(=O)N[C@@H](CCC(=O)O)C(=O)N[C@@H](Cc1c[nH]c2ccccc12)C(=O)N[C@@H](Cc1c[nH]c2ccccc12)C(=O)N[C@]1(C)CCCCCCC=CCCC[C@@](C)(C(=O)N[C@@H](CCCNC(=N)N)C(=O)N[C@@H](CCCNC(=N)N)C(=O)N[C@@H](C)C(N)=O)NC(=O)[C@H](CCCNC(=N)N)NC(=O)[C@H](CCC(N)=O)NC(=O)[C@H](CC(C)C)NC(=O)[C@H](CCC(=O)O)NC(=O)[C@H](CC(C)C)NC(=O)[C@H](CCCCN)NC1=O) [G3-5]",Ubiquitinated securin (Mean ± SD),APC/C [1],6.1 ± 7%
"Ac-cyclo(5,9)-RWPQXIKDXQVRWW-NH2 (Ac-RWPQ[S5]IKD[S5]QVRWW-NH2; staple 5-9; SMILES CC[C@H](C)[C@@H]1NC(=O)[C@@](C)(NC(=O)[C@H](CCC(N)=O)NC(=O)[C@@H]2CCCN2C(=O)[C@H](Cc2c[nH]c3ccccc23)NC(=O)[C@H](CCCNC(=N)N)NC(C)=O)CCCC=CCCC[C@@](C)(C(=O)N[C@@H](CCC(N)=O)C(=O)N[C@H](C(=O)N[C@@H](CCCNC(=N)N)C(=O)N[C@@H](Cc2c[nH]c3ccccc23)C(=O)N[C@@H](Cc2c[nH]c3ccccc23)C(N)=O)C(C)C)NC(=O)[C@H](CC(=O)O)NC(=O)[C@H](CCCCN)NC1=O) [G3-3] [listing 2 of 2 here]",inhibition of APC/C activity in vitro compared with TAME,APC/C [2],inhibit APC/C in vitro more efficiently than TAME
